Results on 9 molecules are retold here after US7517850B2, “Calcium phosphate nanoclusters and their applications” (priority 1999, dated 2009).

Data set [1] is described as follows: Test for nanocluster formation (absence of precipitation). In kind it is physicochemical. The following applies: standard conditions for β-casein phosphopeptide nanoclusters modified to the smallest extent; absence of precipitation = nanocluster-like particles. An excerpt:
Nanocluster formation was investigated with the following phosphoproteins, phosphoprotein mixtures, phosphopeptides and phosphopeptide mixtures: • 1. Whole casein • 2. Mixtures of β- and κ-caseins • 3. β-casein 5P • 4. A commercial phosphopeptide mixture supplied by MD foods and derived from casein, containing a large number of phosphopeptides as described by Ellegard et al. (1999). • 5. A phosphopeptide mixture derived from a digestion of whole casein with protease XIV from Streptomyces griseus, and papain type IV containing αs1-casein 2P (f46-51), αs1-casein 4P (f61-70), β-casein 4P (f11-21), αs2-casein 3P (f5-12), αs2-casein 4P (f49-61) and αs2-casein 2P (f126-133). • 6. β-casein phosphopeptides 4P (f1-25) or 4P (f2-25) or 5P (f1-42) • 7. Cyanogen bromide cleavage fragments αs1-casein 2P (f1-54) or αs1-casein 6P (f61-123). • […]. Tryptic phosphopeptides αs1-casein 1P (f104-119) or αs1-casein 2P (f43-58) or αs1-casein 5P (f59-79) or αs1-casein 7P (f43-79)
A test for nanocluster formation was applied in which the standard conditions for the formation of nanoclusters from the β-casein phosphopeptide were modified to the smallest extent possible and applied to the other peptides or peptide mixtures. […] Nanoclusters were found with each of the 6 phosphopeptides and confirmed experimentally by X-ray scattering measurements.

Data set [2] can be described thus: Confirmation of nanocluster formation by small angle X-ray or neutron scattering. It is filed as physicochemical. An excerpt: The formation of nanoclusters, nanocluster-like particles or larger particles composed of assemblies of nanoclusters has been established by small angle X-ray or neutron scattering experiments, as described by Holt et al. (1996, 1998).

The conditions of data set [3]: small angle X-ray or neutron scattering; Holt et al., 1996, 1998; cited from earlier work.

Like-named read-outs stand apart in the source and are kept apart here. Ends that are not written are not given here.

For the molecule “αs1-casein 2P (f43-58): tryptic phosphopeptide of αs1-casein, item 8 (DIGSESTEDQAMEDIK; also: 2 phosphorylations, sites not given here; UniProt P02662 58-73, looked up, fragment)”, the “outcome of test for nanocluster formation” value (“outcome of test” for short) in data set [1] was “No stable nanocluster solution was formed”. The “Conclusion (nanocluster formation)” value in data set [2] was “Precipitation of calcium phosphate”.

“αs1-casein 7P (f43-79): tryptic phosphopeptide of αs1-casein, item 8 (DIGSESTEDQAMEDIKQMEAESISSSEEIVPNSVEQK; also: 7 phosphorylations, sites not given here; UniProt P02662 58-94, looked up, fragment)”: the “outcome of test” value in data set [1] is recorded as “Nanoclusters were formed”. In data set [2], the “Conclusion (nanocluster formation)” value is recorded as “Clear solution of stable nanoclusters in the normal”.

With “αs1-casein 5P (f59-79): tryptic phosphopeptide of αs1-casein, item 8 (QMEAESISSSEEIVPNSVEQK; also: 5 phosphorylations, sites not given here; UniProt P02662 74-94, looked up, fragment)”, the “outcome of test” value in data set [1] is reported as “Nanoclusters were formed”. In data set [2], the “Conclusion (nanocluster formation)” value was “Clear solution of stable nanoclusters in the normal”.

For “β-casein phosphopeptide 4P (f2-25): β-casein phosphopeptide residues 2-25 with 4 phosphorylated residues, item 6 (ELEELNVPGEIVESLSSSEESITR; also: 4 phosphorylations, sites not given here; UniProt P02666 17-40, looked up, fragment)”, the “Conclusion (nanocluster formation)” value in data set [2] is “Monodisperse nanoclusters formed”.

On to “αs1-casein 1P (f104-119): tryptic phosphopeptide of αs1-casein, item 8 (YKVPQLEIVPNSAEER; also: 1 phosphorylation, site not given here; UniProt P02662 119-134, looked up, fragment)”, for which the “outcome of test” value in data set [1] is recorded as “No stable nanocluster solution was formed”. The “Conclusion (nanocluster formation)” value in data set [2] is “Precipitation of calcium phosphate”.

Take “αs1-casein 2P (f1-54): cyanogen bromide cleavage fragment of αs1-casein, item 7 (RPKHPIKHQGLPQEVLNENLLRFFVAPFPEVFGKEKVNELSKDIGSESTEDQAM; also: 2 phosphorylations, sites not given here; UniProt P02662 16-69, looked up, fragment)”: the “outcome of test” value in data set [1] is recorded as “failed to dissolve”.

Turning to “β-casein phosphopeptide 5P (f1-42): β-casein phosphopeptide residues 1-42 with 5 phosphorylated residues, item 6 (RELEELNVPGEIVESLSSSEESITRINKKIEKFQSEEQQQTE; also: 5 phosphorylations, sites not given here; UniProt P02666 16-57, looked up, fragment)”, the “Conclusion (nanocluster formation)” value in data set [3] was “Monodisperse nanoclusters formed (Holt et al., 1996,”.

Consider “β-casein phosphopeptide 4P (f1-25): β-casein phosphopeptide residues 1-25 with 4 phosphorylated residues, item 6 (RELEELNVPGEIVESLSSSEESITR; also: 4 phosphorylations, sites not given here; UniProt P02666 16-40, looked up, fragment)”, for which the “Conclusion (nanocluster formation)” value in data set [3] is “Monodisperse nanoclusters formed (Holt et al., 1996,”.

B1: β-casein 5p: β-casein phosphoprotein with 5 phosphorylated residues, item 3 (protein, UniProt P02666 16-224, looked up)
Beta-casein: RELEELNVPGEIVESLSSSEESITRINKKIEKFQSEEQQQTEDELQDKIHPFAQTQSLVYPFPGPIPNSLPQNIPPLTQTPVVVPPFLQPEVMGVSKVKEAMAPKHKEMPFPKYPVEPFTESQSLTLTDVENLHLPLPLLQSWMHQPHQPLPPTVMFPPQSVLSLSQSKVLPVPQKAVPYPQRDMPIQAFLLYQEPVLGPVRGPFPIIV
modifications: 5 phosphorylations
notes: β-casein phosphoprotein with 5 phosphorylated residues, item 3
In the case of B1, the “outcome of test” value in data set [1] is “underwent an unlimited aggregation”. In data set [2], the “Conclusion (nanocluster formation)” value is listed as “Uncontrolled precipitation of the β-casein aggregates”.
